Source: the nanobody polyreactivity screen of Harvey et al. (2022)

Assay: yeast display, Sf9 membrane polyspecificity reagent, FACS + sequencing; frameworks hold sequencing errors
How it was run: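 Galactose-induced (36–48 hours) yeast carrying a synthetic nanobody display library were exposed to 10% biotinylated, detergent-solubilized Sf9 membrane reagent at 4 °C for 1 hour. FACS followed streptavidin microbead enrichment, using low and high (top ~1%) gates for expression (anti-HA) and reagent binding (streptavidin). Colony PCR, MiSeq 2 × 250 sequencing and CDR-length filtering followed. Labels for polyreactivity reflect the gate of origin.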

Row | Sequence | polyreactivity (PSR sort gate)
1 | HVQLVESGGGLVQAGGSLRVSCAASGSILTRNAMGWYRQAPGKERELVAAITGSGGRTYYADSVKGRFTISRDNAKNTVDLQMNSLKPEDTAVYYCAAGWRFGRYSGDYWGQGTQVTVSS | high polyreactivity
2 | HVQLVETGGGLVQAGGSLRLSCAASGSTFYIYAMGCYRPAPGKEREFVAAIDFSGSSTYADSVKGRFTISRDNAKNTVYLQMNSLKPEDTAVYYCSARWYLTGGWTWVSFSHDYWGQGTQVTVSS | low polyreactivity
3 | HVQQQESGGGLVQAGGSLRLSCAASGYISVVIGMCWYRQSPGKERELVASIAYGAITYYTDRVKGRFTISRDYAKNTEYLQMNSLKAEDTAVYYCAADQPPLAYHWYWGQGTQATVSS | high polyreactivity
4 | HVQRVESGGGLVQAGASLRLSCAASGGIFSPNAMGWYRQAPGKERELVAAISSNGGSTNYADSVKGRFTISRDNAKNTVYLQMNSLKPEDTAVYYCAGLQKRRSYWRPFYWGQGTQVTVSS | low polyreactivity
5 | IIQAGGSLRLSCAASGGTFFVYMGWYRQAPGKERELVADISGFGGGTYYADSVKGRFTISRDNAKNTVYLQMNSLKPEYTAVYYCATVVPTGIIRMYWGQGTQVTVSS | low polyreactivity
6 | IIQEGGSLRLSCAASGRTFSGYAMGWYRQAPGKERELIADITSGGSTYYADSVKGRFTISRDNAKNTVYLQMNSLKPEDTAVYYCAAERQIRSFWSSRTYEFGYWGQGTQVTVSS | low polyreactivity
7 | KFQLVESGGGLVQAVGSLRLSCDASGRTFYYYDMGWYRQAPGKERELVAAITWDGGRTYYADSVMGRFTISRDNAKNTVYLQMNSLKPEDTAVYYCNADDFFEILGECTLMDYWGQGTQVTVSS | low polyreactivity
8 | KVHLVDSGGRLVQAGGSLRLSCSASGSIFYVYAMGWYRQAPGTERELVATISSSAGSTYYAYSVKGRFTISRDNAKNTVNLQMYSLNPVDTAVYYCYADSFLSWVYRYVYYVSGLWGQGTQVTVSS | low polyreactivity
9 | KVQLVESGAGLVQAGGSLRLSCAASGITFVRYVMGWYRQAPGKERELVAAISNSGGRTYYADSVKGRFTISRDNAKNTVYLQMNSLKPEDTAVYYCARRAGSYPYGYTGYDYWGQGTLVTVSS | high polyreactivity
10 | KVQLVESGGGLVQAGGSLRISCAASGSIFGYYTMGWYRQAPGKERELVARITRGGSTYYADSVKGRFTISRDNAKNTVYLHMNSLKPEDTAVYFCNADSRYRYEYWGLGTQVTVSS | low polyreactivity
11 | KVQLVESGGGLVQAGGSLRITCAASGSNQASNAMGWYRQAPGKERELVAAIRVSGASTYYADSVKGRFTISRDNAKNTVYLQMKSLKPEYNAVYYCAADYQFGVIYYYWGQGTQVTLSS | low polyreactivity
12 | KVQLVESGGGLVQAGGSLRLSCAASGLTFSYYAMGWYRQAPGKERELVAAITRSGTRTYYADSVKGRFTISRDNAKNTVYLQMNSLKPEDTAVYYCARYLRGDFQQGEHWGQGTQVTVSS | high polyreactivity
13 | KVQLVESGGGLVQAGGSLRLSCAASGSIFGDNAMGWYRQAPGKERELVAAINYNGGRTYYADSVKGRFTISRDNAKNTVYLQMNSLKPEDTAVYYCAKDNYQAPVQQYPFDYWGQGSQVTVSS | low polyreactivity
14 | KVQLVESGGGLVQAGGSLRLSCAASGSIFYYYAMGWYRQAPGKERELVAAISERGAYVLRRPVKGRFTISRDNAKNTVYLQMNSLKPEDTAVYYCAVGFNFQGWRYDYWGQGTQVNVSS | high polyreactivity
15 | KVQLVESGGGLVQAGGSLRLSCAASGSTFPPNAMGWNRQAPGKERELVAVISYSDGSTYYADSVKGRFTISRDNAKNTVYLQMNSLKPEDTAVYYCAAYSGYGGVSMYYWGQGTQVTVSS | low polyreactivity
16 | KYYADSVKGRFTISRDNAKNTVYLQMNSLNPEDTAVYYCNAGYYISFNPYDYWGQGTQVTVSW | low polyreactivity
17 | LEQLVESGGGLVHAGGSLRLSCAASRSNFPQYTLGWNRQAPVKERELVAAISNYGSSTYYADSEKGRFTISRDYAKNSVSLQMNSLKPEDTAVYECNADDYGYYPGVNYWGQGTQVTVSS | low polyreactivity
18 | LVQLQESGGGLVLAGGGLRLSCAASGNIFTYVIMGWYRQPPGKERELVAAITYGTITNYADSVKGPFTISRDNAKNTVYLQMNCLKPEDTAVYHCAVQSPRIEPRLYYWGQGTQVTVSS | high polyreactivity
19 | LVQLQESRGGLVLAGGGLRLSCPESVNIFTYVIMGWYRQQPGKERELVAAITYGTFTNYADSVKGPFTISRDNAKNTVYLHMNCLKPEDTAVYHCAVQSPLIEPRLYYWGQGTQVTVSS | high polyreactivity
20 | LVQLVESGGGLVHAGGSLRLSCAASGSTFNIYAMGWYRQAPGKERELVAAISSSGGRTYYADSVKGRFTISRDNAKNTVYFQMIRLKPEDTAVYYCAARSRRVSLIRDSYGYWGQGTQVNVSS | high polyreactivity
21 | LVQLVESGGGLVQAGGSLRLSCAASGNTFVSNAMGWYRQAPGKERELVAAIDSGGSTNYADSVKGRFTISRDNAKNTVYLQMNSLKPDDTAVYYCTRTSVYYYYWGQGTQVTVSS | low polyreactivity
22 | LVQLVESGGGLVQAGGSLRLSCAASGRIFVGYAMGWFRQAPGKERELVAAISRRAGRTYYADSVKGRFTLSRDNAKNTVYLQMNSLKPEDTPVYYCIAPRYYPKAGFDYWGQGTQVTVSS | high polyreactivity
23 | LVQLVESGGGLVQAGGSLRLSCAASGYIIGFYVMGWYRQAPGKERELVAVIDYGSDNTYYADSVLGRYTISRDNAKNTVYLQMNSLKPEETAVYYCAAEWYKSNYYDYDTWGQGTQVTVSS | high polyreactivity
24 | LVQLVESRGGLVQAGGSLRLSCAASGRTFAWYAMGWYRPAPGKERELVAAISNVGSTYYADTVKGRFTISRDNAKNTVYLQMNSLKPEDTAVYYCNPDAVSTDGREYWGQGTQVTVSS | low polyreactivity
25 | LVQLVETGGGLVQAGGSLRLSCAASGSVFYSYAMGWYRQAPGKERELVAAISFSGGSTYYADSVKGRFTISRDNAKNTVYLQMNSLKPEDTAVYYCNTLSADTFDYWGQGTQVTVSS | low polyreactivity
26 | LVQLVQSGGGLVQAGGSLRLSCAASGRTFIGYAMGWYRQAPGKERELVAAITSDGGTNYADSVKGRFTISRDNAKNTVNLLMNSLKPEDTAVYDCAARRRVSYHLYGYWGQGTQVTVSS | high polyreactivity
27 | NVQLVESGGGLVQAGGSLRLSCAASGSTFDYYDMGWYRQAPWKERELVATITSGGSTNYADSVKGRFTITRDNAKNTVYLLMHSLKPEDTAVYYCDARIRSVVPFDMDYWGQGTQVTVSW | low polyreactivity
28 | PDQLVESGGGLVQAGGSLRLSCAASGFIFTYYAMGWYRQAPGKERELVAAITRRGGSTYYADSVKGRFTISRDNAKNTVYLQMNRLKPEDTAVYYCNKVDQGRYGYWGQGTQVTVSS | high polyreactivity
29 | PLQLVESGGGLVQAGGSLRLSGAASGIIFNQYPMGWYRQAPGKEREFVPAISSSGGSTYYADSVKGRFTISRDYAKNTVYLQMNSLKPADTAVYFCSADSPGWTYTSRSYDYWGQGTQVTLSS | low polyreactivity
30 | PVQLEESGGGLDQAGGSLRISCAASGRIFWAKAMGWYRQAPGKERELVAAINRRTGITYYADSVKGRFTISRDNAKNTVYFQMNSLKPEDTAVYYCAADWRTKCYDSLGQGTQVTVSS | high polyreactivity
